Patent publication US20220177547A1 (KYUNGPOOK NATIONAL UNIVERSITY INDUSTRY ACADEMIC COOPERATION …, published 2022)
Blank lines part the entries; values can stand above or below the binder they belong to.

Columns and labels:
[1] = biological target: T1, TRAIL receptor protein Dr5 (UniProt O14763 56-182, limits assumed); experiment: SPR, Dr5 coupled to gold sensor chip, TRAIL-ATNC flowed 8.33 nM to 0.52 nM
T1 construct: Purified protein amine-coupled (NHS-EDC) to the SPR chip; The construct is not described
Procedure: (§1) The TRAIL receptor protein Dr5 was coupled to a surface of a gold sensor chip by flowing it on the surface of the gold sensor chip for surface resonance plasma (SPR) activated with NHS-EDC, and blocked with ethanolamine. The binding kinetics were analyzed by flowing TRAIL-ATNC dissolved in TBS from 8.33 nM to 0.52 nM by half, and TRAIL from 400 nM to 25 nM by half on the TRAIL receptor-coupled gold sensor chip, respectively. The right channel, which was not coated with Dr5, was used as a control (or reference).

[2] = biological target: T1, TRAIL receptor protein Dr5; experiment: SPR, Dr5 coupled to gold sensor chip
Procedure: as §1
It was determined that TRAIL-ATNC bound to the TRAIL receptor faster than TRAIL, and formed a stable complex in which dissociation was delayed after binding.

[3] = biological target: T2, Interleukin 4 receptor (IL4R) protein (UniProt P24394 26-232, limits assumed); experiment: SPR, IL4R coupled to gold sensor chip, TRAIL-ATNC^IL4rP flowed 41.67 nM to 0.65 nM
T2 construct: Purified protein amine-coupled (NHS-EDC) to the SPR chip; The construct is not described
T2 sequence (looked up): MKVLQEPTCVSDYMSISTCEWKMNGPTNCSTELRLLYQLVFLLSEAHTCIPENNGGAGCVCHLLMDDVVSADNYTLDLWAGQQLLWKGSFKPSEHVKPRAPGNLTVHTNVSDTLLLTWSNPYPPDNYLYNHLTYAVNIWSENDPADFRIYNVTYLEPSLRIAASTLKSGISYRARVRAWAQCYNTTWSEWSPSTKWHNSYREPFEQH
Procedure: Interleukin 4 receptor (IL4R) protein was coupled to the surface of a gold sensor chip for surface resonance plasma (SPR) activated with NHS-EDC, and TRAIL-ATNC^IL4rP dissolved in TBS was flowed from 41.67 nM to 0.65 nM in half on the IL4R-coupled gold sensor chip to analyze binding kinetics. The right channel, which was not coated with IL4R, was used as a reference.

Kd [1]: 0.411 nM
koff [1]: 0.000217 s⁻¹
kon [1]: 529000 M⁻¹ s⁻¹
fold higher kon than TRAIL alone [2]: ~10 fold
fold lower KD than TRAIL [2]: ~100 fold
fold lower koff than TRAIL alone [2]: ~10 fold
B1: TRAIL-ATNC (Active Trimer Nanocage) (other)
chain: MGSSHHHHHHSSGLVPRGSQHMVRERGPQRVAAHITGTRGRSNTLSSPNSKNEKALGRKINSWESSRSGHSFLSNLHLRNGELVIHEKGFYYIYSQTYFRFQEEIKENTKNDKQMVQYIYKYTSYPDPILLMKSARNSCWSKDAEYGLYSIYQGGIFELKENDRIFVSVTNEHLIDMDHEASFFGAFLVGGSGGGSGEFEALQGQVQHLQAAFSQYKKVELFPVDGGGGAEAAAKEAAAKTSDSEAAINRQINLELYASYVYLSMSYYFDRDDVALKNFAKYFLHQSHEEREHAEKLMKLQNQRGGRIFLQDIKKPDCDDWESGLNAMECALHLEKNVNQSLLELHKLATDKNDPHLCDFIETHYLNEQVKAIKELGDHVTNLRKMGAKL
notes: It was expressed from pET-28a and purified on Ni-NTA; also called TRAIL-attached nanocage

Kd [3]: 37.7 nM
B2: TRAIL-ATNC^IL4rP (other)
chain: MGSSHHHHHHSSGLVPRGSQHMVRERGPQRVAAHITGTRGRSNTLSSPNSKNEKALGRKINSWESSRSGHSFLSNLHLRNGELVIHEKGFYYIYSQTYFRFQEEIKENTKNDKQMVQYIYKYTSYPDPILLMKSARNSCWSKDAEYGLYSIYQGGIFELKENDRIFVSVTNEHLIDMDHEASFFGAFLVGGSGGGSGEFEALQGQVQHLQAAFSQYKKVELFPVDGGGGAEAAAKEAAAKTSDSEAAINRQINLELYASYVYLSMSYYFDRDDVALKNFAKYFLHQSHEEREHAEKLMKLQNQRGGRIFLQDIKKPDCDDWESGLNAMECALHLEKNVNQSLLELHKLATDKNDPHLCDFIETHYLNEQVKAIKELGDHVTNLRKMGAKLGGGSGGPLGLAGGGGSGCRKRLDRNC
notes: Ferritin nanocage of 24 fusion polypeptides; It was expressed from pET-28a and purified on Ni-NTA; also called TRAIL trimer fusion protein expressed on the cancer-targeting ferritin nanocage
